How the values were obtained:
[1] = molecular target: C1ND (recombinant human CEACAM1 N-domain, residues 35-142, C-terminal Strep-Tag II, made in Expi293 cells) (human) (UniProt P13688); experiment: isothermal titration calorimetry, HopQ^AD titration with C1ND, 25 °C, 1:1 stoichiometry
[2] = molecular target: C1ND (recombinant human CEACAM1 N-domain, residues 35-142, C-terminal Strep-Tag II, made in Expi293 cells) (human) (UniProt P13688); experiment: ELISA, C1ND coated, HopQ fragments titrated

Substance	Kd [1] [nM]	fold reduction of CEACAM1 binding affinity against HopQ^AD [2] [fold]
HopQ^AD (HopQ adhesin domain; soluble HopQ type I fragment of H. pylori strain G27, residues 37-463, C-terminal 6x His-tag)	296	–
HopQ^ADΔID (HopQ^AD in which amino acids 190-218 of the mature protein are replaced by two glycines)	–	10

Source: patent publication US20230087805A1
